# Experimental data taken from IntAct's records for PubMed 23452855.
# B1: F-box/LRR-repeat protein 21 (Mus musculus), Q8BFZ4 (parent)
# chain: MKRNNFSAVNKVVQSSPVVKQPKRGLCSSLRQTHALSVLLDWGTLPHHVILQIFQYLPLIDRARASSVCRRWNEVFHIPDLWRKFEFELNQSATSYFKSTHPDLIQQIIKKHAAHLQYVSFKVDSSTESAEAACDILSQLVNCSIQTLGLISTAKPSFMNVPKSHFVSALTVVFVNSKSLSSIKIEDTPVDDPSLKILVANNSDTLRLLKMSSCPHVSSDGILCVADHCQGLRELALNYYILSDEILLALSSETHVNLEHLRIDVVSENPGQIKFHSIKKRSWDALIKHSPRVNVVMYFFLYEEEFEAFFKEETPVTHLYFGRSVSRAILGRIGLNCPRLIELVVCANGLLPLDSELIRIAKHCKNLTSLGLSECEVSCSAFVEFVRLCGRRLTQLSIMEEVLVPDDRYTPDEVHTEVSKHLGRVWFPDVMPIW
# partner: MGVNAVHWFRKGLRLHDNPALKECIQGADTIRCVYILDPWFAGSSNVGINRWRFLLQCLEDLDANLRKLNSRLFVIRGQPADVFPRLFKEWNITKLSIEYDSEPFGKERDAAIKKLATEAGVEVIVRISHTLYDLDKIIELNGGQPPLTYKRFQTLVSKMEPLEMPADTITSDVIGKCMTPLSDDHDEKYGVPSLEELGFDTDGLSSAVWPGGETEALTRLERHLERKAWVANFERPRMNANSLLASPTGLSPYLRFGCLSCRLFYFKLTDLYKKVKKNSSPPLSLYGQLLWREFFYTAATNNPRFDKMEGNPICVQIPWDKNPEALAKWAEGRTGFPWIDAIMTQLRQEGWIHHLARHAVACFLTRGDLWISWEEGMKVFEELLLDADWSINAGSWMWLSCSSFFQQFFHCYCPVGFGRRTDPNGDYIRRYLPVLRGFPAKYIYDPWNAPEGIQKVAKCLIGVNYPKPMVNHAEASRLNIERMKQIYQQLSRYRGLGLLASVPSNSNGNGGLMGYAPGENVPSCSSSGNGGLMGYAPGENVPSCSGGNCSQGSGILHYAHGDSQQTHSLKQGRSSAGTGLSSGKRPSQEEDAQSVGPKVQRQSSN
# Variants of: B1
# Conditions: with cry1_mouse Cry1, P97784
row,Variant,effect of a mutation on the interaction
1,MKRNNFSAVNKVVQSSPVVKQPKRGLCSSLRQTHALSVLLDWGTLPHHVILQIFQYLPLIDRARASSVCRRWNEVFHIPDLWRKFEFELNQSATSYFKSTHPDLIQQIIKKHAAHLQYVSFKVDSSTESAEAACDILSQLVNCSIQTLELISTAKPSFMNVPKSHFVSALTVVFVNSKSLSSIKIEDTPVDDPSLKILVANNSDTLRLLKMSSCPHVSSDGILCVADHCQGLRELALNYYILSDEILLALSSETHVNLEHLRIDVVSENPGQIKFHSIKKRSWDALIKHSPRVNVVMYFFLYEEEFEAFFKEETPVTHLYFGRSVSRAILGRIGLNCPRLIELVVCANGLLPLDSELIRIAKHCKNLTSLGLSECEVSCSAFVEFVRLCGRRLTQLSIMEEVLVPDDRYTPDEVHTEVSKHLGRVWFPDVMPIW [G149E],decreasing interaction strength
